Columns and labels:
HLA-A*24:02 = assay: IEDB peptide-MHC binding, purified MHC/competitive/fluorescence; ≥ and ≤ were set here for values at or beyond the usual limits of such assays
HLA-B*40:01 [1] = assay: IEDB peptide-MHC binding, purified MHC/competitive/radioactivity; filed as Kd, often an IC50 or EC50 that approximates it; ≥ and ≤ were set here for values at or beyond the usual limits of such assays
HLA-B*18:01 = assay: as above
HLA-B*45:01 = assay: as above
HLA-B*40:02 = assay: as above
HLA-B*44:03 = assay: as above
HLA-B*44:02 [2] = assay: as above
HLA-A*02:01 [3] = assay: IEDB peptide-MHC binding, purified MHC/competitive/fluorescence; ≥ and ≤ were set here for values at or beyond the usual limits of such assays; conditions: source organism: Vaccinia virus WR
HLA-B*48:01 = assay: IEDB peptide-MHC binding, purified MHC/direct/fluorescence; filed as Kd, often an IC50 or EC50 that approximates it; ≥ and ≤ were set here for values at or beyond the usual limits of such assays; conditions: source organism: Cryptosporidium parvum Iowa II
HLA-B*58:01 = assay: as above
HLA-A*31:01 = assay: as above
HLA-A*01:01 = assay: as above
HLA-A*26:01 = assay: as above
HLA-A*69:01 = assay: as above
HLA-B*40:01 [4] = assay: as above
HLA-A*24:03 = assay: as above
HLA-B*08:01 = assay: as above; conditions: source organism: Escherichia coli O157:H7
HLA-A*03:01 = assay: as above
HLA-A*11:01 = assay: as above
HLA-A*02:01 [5] = assay: as above
HLA-B*07:02 = assay: as above; conditions: source organism: Escherichia coli
HLA-B*15:01 = assay: as above
HLA-B*27:05 = assay: as above
HLA-B*44:02 [6] = assay: as above
[7] = source organism: Lymphocytic choriomeningitis virus (strain Armstrong)
[8] = source organism: SARS coronavirus Tor2
[9] = source organism: Lassa virus Josiah
[10] = source organism: Mammarenavirus brazilense
[11] = source organism: Mammarenavirus guanaritoense
[12] = source organism: Mammarenavirus lassaense
[13] = source organism: Escherichia coli O157:H7
[14] = source organism: Escherichia coli
[15] = source organism: Giardia lamblia ATCC 50803

ADIGEWAFW
IC50 (HLA-A*24:02; source organism: Sudan ebolavirus): 19.4 µM

ADQAIANGV
Kd (HLA-B*40:01 [1]; [7]): ≥ 73.5 µM
Kd (HLA-B*18:01; [7]): ≥ 33.8 µM
Kd (HLA-B*45:01; [7]): ≥ 20.7 µM
Kd (HLA-B*40:02; [7]): 3.33 µM
Kd (HLA-B*44:03; [7]): ≥ 30.2 µM
Kd (HLA-B*44:02 [2]; [7]): 14.9 µM

AKCIEYVTL
IC50 (HLA-A*24:02; source organism: Vaccinia virus Copenhagen): ≥ 172 µM

AVKYLEGHG
IC50 (HLA-A*24:02; source organism: Zaire ebolavirus): ≥ 117 µM

EELFYSYAT
Kd (HLA-B*40:01 [1]; [8]): 0.691 µM
Kd (HLA-B*18:01; [8]): 1.04 µM
Kd (HLA-B*45:01; [8]): 0.00316 µM
Kd (HLA-B*40:02; [8]): 0.0246 µM
Kd (HLA-B*44:03; [8]): 0.169 µM
Kd (HLA-B*44:02 [2]; [8]): 0.278 µM

EILNTIQFM
IC50 (HLA-A*24:02; source organism: Vaccinia virus WR): ≥ 111 µM
IC50 (HLA-A*02:01 [3]): 7.58 µM

EYSKDSRNK
IC50 (HLA-A*24:02; source organism: Vaccinia virus): ≥ 284 µM

FDAAVSGGL
Kd (HLA-B*40:01 [1]; [9]): ≥ 20 µM
Kd (HLA-B*18:01; [9]): ≥ 77.5 µM
Kd (HLA-B*45:01; [9]): ≥ 28.8 µM
Kd (HLA-B*40:02; [9]): 5.87 µM
Kd (HLA-B*44:03; [9]): ≥ 78.1 µM
Kd (HLA-B*44:02 [2]; [9]): ≥ 77.9 µM

FQWAIQDGI
Kd (HLA-B*48:01): 0.082 µM

GDNEIEYGF
Kd (HLA-B*40:01 [1]; [10]): 9.48 µM
Kd (HLA-B*18:01; [10]): 4.07 µM
Kd (HLA-B*45:01; [10]): 12.2 µM
Kd (HLA-B*40:02; [10]): 1.28 µM
Kd (HLA-B*44:03; [10]): 17 µM
Kd (HLA-B*44:02 [2]; [10]): 4.34 µM

GEKSRCYSL
Kd (HLA-B*40:01 [1]; [11]): 0.488 µM
Kd (HLA-B*18:01; [11]): ≥ 77.5 µM
Kd (HLA-B*45:01; [11]): 1.24 µM
Kd (HLA-B*40:02; [11]): 0.0147 µM
Kd (HLA-B*44:03; [11]): 11.9 µM
Kd (HLA-B*44:02 [2]; [11]): 2.05 µM

GEPKESTPM
Kd (HLA-B*40:01 [1]; [12]): 1.18 µM
Kd (HLA-B*18:01; [12]): ≥ 77.5 µM
Kd (HLA-B*45:01; [12]): ≥ 77.7 µM
Kd (HLA-B*40:02; [12]): 0.191 µM
Kd (HLA-B*44:03; [12]): ≥ 78.1 µM
Kd (HLA-B*44:02 [2]; [12]): 9.34 µM

GETALALLLL
Kd (HLA-B*40:01 [1]; [8]): 0.0161 µM
Kd (HLA-B*18:01; [8]): ≥ 48.1 µM
Kd (HLA-B*45:01; [8]): 1.9 µM
Kd (HLA-B*40:02; [8]): 0.0162 µM
Kd (HLA-B*44:03; [8]): 0.149 µM
Kd (HLA-B*44:02 [2]; [8]): 1.34 µM

GLKRGGVLL
Kd (HLA-B*58:01; [13]): ≥ 20 µM
Kd (HLA-A*31:01; [13]): ≥ 20 µM
Kd (HLA-A*01:01; [13]): ≥ 20 µM
Kd (HLA-A*26:01; [13]): ≥ 20 µM
Kd (HLA-A*69:01; [13]): ≥ 20 µM
Kd (HLA-B*40:01 [4]; [13]): ≥ 20 µM
Kd (HLA-A*24:03; [14]): ≥ 20 µM
Kd (HLA-B*08:01): ≥ 20 µM
Kd (HLA-A*03:01; [13]): ≥ 20 µM
Kd (HLA-A*11:01; [13]): ≥ 20 µM
Kd (HLA-A*02:01 [5]; [14]): 2.05 µM
Kd (HLA-B*07:02): 8.28 µM
Kd (HLA-B*15:01; [14]): 0.919 µM
Kd (HLA-B*27:05; [13]): ≥ 20 µM
Kd (HLA-B*44:02 [6]; [13]): ≥ 20 µM

GMLSSLHTL
Kd (HLA-B*58:01; [15]): 5.05 µM
Kd (HLA-A*31:01; [15]): ≥ 20 µM
Kd (HLA-A*01:01; [15]): ≥ 20 µM
Kd (HLA-A*26:01; [15]): ≥ 20 µM
Kd (HLA-A*69:01; [15]): ≥ 20 µM
Kd (HLA-B*40:01 [4]; [15]): ≥ 20 µM
Kd (HLA-A*24:03; [15]): 0.215 µM
Kd (HLA-A*03:01; [15]): ≥ 20 µM
Kd (HLA-A*11:01; [15]): ≥ 20 µM
Kd (HLA-A*02:01 [5]; [15]): 0.0187 µM
Kd (HLA-B*15:01; [15]): 0.255 µM
Kd (HLA-B*27:05; [15]): 2.7 µM
Kd (HLA-B*44:02 [6]; [15]): ≥ 20 µM

From the Immune Epitope Database (IEDB)
